Results reported in IntAct's records for PubMed 21041660.

B1: Cell division control protein 6 homolog (Homo sapiens), Q99741 (parent)
chain: MPQTRSQAQATISFPKRKLSRALNKAKNSSDAKLEPTNVQTVTCSPRVKALPLSPRKRLGDDNLCNTPHLPPCSPPKQGKKENGPPHSHTLKGRRLVFDNQLTIKSPSKRELAKVHQNKILSSVRKSQEITTNSEQRCPLKKESACVRLFKQEGTCYQQAKLVLNTAVPDRLPAREREMDVIRNFLREHICGKKAGSLYLSGAPGTGKTACLSRILQDLKKELKGFKTIMLNCMSLRTAQAVFPAIAQEICQEEVSRPAGKDMMRKLEKHMTAEKGPMIVLVLDEMDQLDSKGQDVLYTLFEWPWLSNSHLVLIGIANTLDLTDRILPRLQAREKCKPQLLNFPPYTRNQIVTILQDRLNQVSRDQVLDNAAVQFCARKVSAVSGDVRKALDVCRRAIEIVESDVKSQTILKPLSECKSPSEPLIPKRVGLIHISQVISEVDGNRMTLSQEGAQDSFPLQQKILVCSLMLLIRQLKIKEVTLGKLYEAYSKVCRKQQVAAVDQSECLSLSGLLEARGILGLKRNKETRLTKVFFKIEEKEIEHALKDKALIGNILATGLP

Variants of: B1
Conditions: with cdk1_human CDK1, P06493
Chain of cdk1_human CDK1, P06493 (P06493 whole entry, looked up): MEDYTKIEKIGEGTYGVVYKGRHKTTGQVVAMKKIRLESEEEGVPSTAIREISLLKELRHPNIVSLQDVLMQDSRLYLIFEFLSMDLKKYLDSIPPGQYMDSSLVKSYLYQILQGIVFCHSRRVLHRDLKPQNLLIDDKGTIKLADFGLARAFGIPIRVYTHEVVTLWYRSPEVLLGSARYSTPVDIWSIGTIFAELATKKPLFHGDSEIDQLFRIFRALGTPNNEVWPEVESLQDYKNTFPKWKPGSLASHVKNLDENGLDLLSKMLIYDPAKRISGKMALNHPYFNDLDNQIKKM

Row | Variant | effect of a mutation on the interaction
1 | MPQTRSQAQATISFPKRKLSRALNKAKNSSDAKLEPVNVQTVTCSPRVKALPLSPRKRLGDDNLCNTPHLPPCSPPKQGKKENGPPHSHTLKGRRLVFDNQLTIKSPSKRELAKVHQNKILSSVRKSQEITTNSEQRCPLKKESACVRLFKQEGTCYQQAKLVLNTAVPDRLPAREREMDVIRNFLREHICGKKAGSLYLSGAPGTGKTACLSRILQDLKKELKGFKTIMLNCMSLRTAQAVFPAIAQEICQEEVSRPAGKDMMRKLEKHMTAEKGPMIVLVLDEMDQLDSKGQDVLYTLFEWPWLSNSHLVLIGIANTLDLTDRILPRLQAREKCKPQLLNFPPYTRNQIVTILQDRLNQVSRDQVLDNAAVQFCARKVSAVSGDVRKALDVCRRAIEIVESDVKSQTILKPLSECKSPSEPLIPKRVGLIHISQVISEVDGNRMTLSQEGAQDSFPLQQKILVCSLMLLIRQLKIKEVTLGKLYEAYSKVCRKQQVAAVDQSECLSLSGLLEARGILGLKRNKETRLTKVFFKIEEKEIEHALKDKALIGNILATGLP [T37V] | disrupting interaction

Variants of: B1
Conditions: with plk1_human PLK1, P53350
Chain of plk1_human PLK1, P53350 (P53350 whole entry): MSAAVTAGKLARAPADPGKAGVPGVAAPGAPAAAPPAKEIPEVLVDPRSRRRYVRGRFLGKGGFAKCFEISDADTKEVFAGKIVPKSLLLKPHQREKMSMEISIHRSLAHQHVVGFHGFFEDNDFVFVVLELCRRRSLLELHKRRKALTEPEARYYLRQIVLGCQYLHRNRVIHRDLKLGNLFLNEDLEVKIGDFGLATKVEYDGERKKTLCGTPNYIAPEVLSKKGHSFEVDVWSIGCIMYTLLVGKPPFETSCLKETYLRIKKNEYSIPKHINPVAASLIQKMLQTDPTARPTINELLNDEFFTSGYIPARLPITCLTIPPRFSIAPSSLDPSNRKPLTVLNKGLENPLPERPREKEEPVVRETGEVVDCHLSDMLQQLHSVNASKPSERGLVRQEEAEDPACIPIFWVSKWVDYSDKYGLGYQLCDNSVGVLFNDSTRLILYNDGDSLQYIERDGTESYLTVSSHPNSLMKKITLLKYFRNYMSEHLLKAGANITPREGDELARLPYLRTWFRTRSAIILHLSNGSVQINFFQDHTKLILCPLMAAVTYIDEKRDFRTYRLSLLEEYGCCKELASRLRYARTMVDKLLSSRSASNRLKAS

Row | Variant | effect of a mutation on the interaction
2 | MPQTRSQAQATISFPKRKLSRALNKAKNSSDAKLEPVNVQTVTCSPRVKALPLSPRKRLGDDNLCNTPHLPPCSPPKQGKKENGPPHSHTLKGRRLVFDNQLTIKSPSKRELAKVHQNKILSSVRKSQEITTNSEQRCPLKKESACVRLFKQEGTCYQQAKLVLNTAVPDRLPAREREMDVIRNFLREHICGKKAGSLYLSGAPGTGKTACLSRILQDLKKELKGFKTIMLNCMSLRTAQAVFPAIAQEICQEEVSRPAGKDMMRKLEKHMTAEKGPMIVLVLDEMDQLDSKGQDVLYTLFEWPWLSNSHLVLIGIANTLDLTDRILPRLQAREKCKPQLLNFPPYTRNQIVTILQDRLNQVSRDQVLDNAAVQFCARKVSAVSGDVRKALDVCRRAIEIVESDVKSQTILKPLSECKSPSEPLIPKRVGLIHISQVISEVDGNRMTLSQEGAQDSFPLQQKILVCSLMLLIRQLKIKEVTLGKLYEAYSKVCRKQQVAAVDQSECLSLSGLLEARGILGLKRNKETRLTKVFFKIEEKEIEHALKDKALIGNILATGLP [T37V] | disrupting interaction
